Patent publication US20080219983A1 (TRIMESTER CUSHION, published 2008)

Legend:
[1] = target: T1, Plasma-derived FVIII light chain (UniProt P00451 1668-2351); assay: solid-phase competition: scFv KM33 (0-30 nM) against FVIII light chain (25 nM) binding to immobilised LRP cluster II (FIG. 5)
T1 construct: domain: light chain (a3-A3-C1-C2); Prepared from plasma as in the cited literature; Human by context (the peptides are said to cover human FVIII regions); Residue numbers count on mature FVIII, without the signal peptide; also called LCh; 80-kDa light chain (a3-A3-C1-C2)
T1 sequence (looked up): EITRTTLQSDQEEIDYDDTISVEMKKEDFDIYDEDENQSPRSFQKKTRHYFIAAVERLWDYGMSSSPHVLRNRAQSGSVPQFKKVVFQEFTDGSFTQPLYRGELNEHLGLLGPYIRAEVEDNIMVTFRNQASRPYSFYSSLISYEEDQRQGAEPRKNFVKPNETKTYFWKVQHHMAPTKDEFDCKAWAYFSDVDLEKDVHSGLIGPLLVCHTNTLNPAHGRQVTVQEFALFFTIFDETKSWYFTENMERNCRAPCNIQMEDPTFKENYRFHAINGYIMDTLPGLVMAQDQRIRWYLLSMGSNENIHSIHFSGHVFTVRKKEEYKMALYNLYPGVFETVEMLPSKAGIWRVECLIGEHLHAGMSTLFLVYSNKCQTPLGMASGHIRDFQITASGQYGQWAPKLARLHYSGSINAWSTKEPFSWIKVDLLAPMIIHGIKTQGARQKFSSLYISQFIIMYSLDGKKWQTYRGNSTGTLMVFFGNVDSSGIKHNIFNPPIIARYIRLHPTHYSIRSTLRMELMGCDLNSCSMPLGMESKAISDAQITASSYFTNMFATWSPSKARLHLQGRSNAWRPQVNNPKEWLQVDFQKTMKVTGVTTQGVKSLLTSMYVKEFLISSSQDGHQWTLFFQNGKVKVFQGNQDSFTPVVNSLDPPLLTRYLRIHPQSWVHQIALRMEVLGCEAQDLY
Protocol: (§1) FIG. 5. […] Data represent the mean ±S.D. of three experiments.
(§2) Solid-phase Binding Assays—Recombinant LRP clusters II or IV (1 pmol/well) were adsorbed onto microtiter wells in 50 mM NaHCO₃ (pH 9.8) in a volume of 50 μl for 16 h at 4° C. Wells were blocked with 2% (w/v) HSA, 150 mM NaCl, 5 mM CaCl₂, and 50 mM Tris (pH 7.4) in a volume of 200 μl for 1 h at 37° C. […] Bound ligand was detected by incubating with peroxidase-conjugated monoclonal antibody CLB-CAg 12 in the same buffer for 15 min at 37° C. […] Residual FVIII binding was detected as described above.

[2] = target: T1, Plasma-derived FVIII light chain; assay: solid-phase competition assay: FVIII light chain (25 nM) on immobilised LRP cluster II (1 pmol/well) in the presence of scFv KM33 (0-30 nM); detection with peroxidase-conjugated CLB-CAg 12
Protocol: as §1, §2

B1: scFv KM33 (scFv)
scFv: EVQLVESGGGVVQPGRSLRLSCVDSGLTFSSYGMHWVRQAPGAGLEWVAVISYDGNDKYYADSVKGRFAISRDNAKNTLYLQMNSLTIEDTAVYYCAKDLIESNIAEAFWGQGTLVTVSSGGGGSGGGGSGGGGSDIQMTQSPSSLSASVGDTVTIACRASRDIRNDLAWYQQKPGKAPKLLIYATSRLQSGVPSRFSGSGSFTDFTLTINSLQPDDSATYYCLQDSDYPLTFGGGTKVDIKRAAAEQKLISEEDLNGAAHHHHHH
notes: Expressed in E. coli TG1
[1]
  Ki: ~5 nM
[2]
  IC50 (read off the curve): ~7 nM
